The text below walks through data of patent publication US20110262366A1.

For experiment [1], the target named is VEGF receptors on HUVECs. Kind of experiment: competition with ^125I-VEGF on HUVECs.
For experiment [2], the target named is endothelial cell receptor on HAEC (human aortic endothelial cells). Kind of experiment: competition against 1% DPPE-GTKPPR microbubbles (competitor) on HAEC, static.
Experiment [3] shares this target. Kind of experiment: competition, 50 µM free TKPPR against TKPPR-beads (competitor) on HAEC, static, n = 11.
Experiment [4] has the same target. As to the kind of experiment: competition, 10 µM free TKPPR against 5% BRU-114 microbubbles (competitor) on HAEC, static.
Experiment [5] has the same target. Kind of experiment: competition, 25 µM free TKPPR against 2% BRU-114 microbubbles (competitor) on HAEC, static.
The target is the same in experiment [6]. Kind of experiment: competition, 25 µM free TKPPR against 1% BRU-292 microbubbles (competitor) on HAEC, static.
Experiment [7] shares this target. As to the kind of experiment: competition, 50 µM free TKPPR against 1% BRU-114 microbubbles (competitor) on HAEC, static.
For experiment [8] the target is unchanged. As to the kind of experiment: competition, 50 µM free TKPPR against 1% BRU-292 microbubbles (competitor) on HAEC, static.
Experiment [9] shares this target. Kind of experiment: competition, 200 µM free TKPPR against 5% BRU-114 microbubbles (competitor) on HAEC, static.
Experiment [10] shares this target. As to the kind of experiment: competition, 50 µM free TKPPR against 10% BRU-114 microbubbles (competitor) on HAEC, static.
The target is the same in experiment [11]. Kind of experiment: competition, 2.5 µM free TKPPR against 1% BRU-114 microbubbles (competitor) on HAEC, static.
Experiment [12] shares this target. Kind of experiment: competition, 200 µM free TKPPR against 10% BRU-114 microbubbles (competitor) on HAEC, static.
Experiment [13] shares this target. Kind of experiment: competition, 25 µM free TKPPR against 1% DPPE-GTKPPR microbubbles (competitor) on HAEC, static.

No end group written: not given here.

B1: TKPPR-OH (L-threonyl-L-lysyl-L-prolyl-L-prolyl-L-arginine) (peptide)
peptide: TKPPR-OH
As to B1, the IC50 in [1] stood at 250 µM. Also, in [2], the % inhibition of bubble binding turned out to be 82.7%. Further, the % Inhibition in [3] was found to be 50.5%. The Bubbles Bound in presence of competitor was 1340 bubbles in experiment [4]; 718 bubbles in [6]; 9 bubbles in experiment [7]; 462 bubbles in experiment [8]; 13 bubbles in [9]; 857 bubbles in experiment [10]. Moreover, the results for the Bubbles Bound in presence of competitor in [11] and in experiment [12] were 1240 bubbles and 66 bubbles, respectively. The Bubbles Bound % (of control binding) in [5] was 16 % of control. The Average % Inhibition in [13] was 82%.
